Results as given in the supplement of paper PMC9170038.

Tested on: MS2 coat protein
Test: apparent KD of MS2 coat protein; designed switch direction (-1 OFF switch, 1 ON switch): 1; higher = weaker reporter binding
Summary of the method: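 The apparent KD reported per design is the median over clusters of curve fits to normalised cluster fluorescence. The RNA switches were transcribed on Illumina chips by stalled E. coli RNA polymerase. SNAP-549-labelled MS2 coat protein was titrated from 0.7 or 1.5 nM, doubling up to 3 µM, in Tris-HCl pH 7.5 buffer containing KCl, MgCl2, BSA, DTT, tRNA and Tween-20, with no input, 200 uM small-molecule ligand, or an oligonucleotide input.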

[1] = input ligand: microRNA oligo, concentration not stated
[2] = Eterna round: R95, input ligand: FMN 200 uM
[3] = Eterna round: R95, input ligand: microRNA oligo, concentration not stated
[4] = Eterna round: R95, input ligand: none

## GGAGCCGGCACCGAGGAUAUUCAUAUUAAAACAUGAGGAUCACCCAUGUACCGCAGAAGCGGUUGGGAGAAGGCGGAUCGGCUCG [Xeonanis - 23] (Eterna round: R96, puzzle: Same State 2)
Input ligand: FMN 200 uM
  apparent KD of MS2 coat protein: 31.3 nM
[1]
  apparent KD of MS2 coat protein: 311 nM
Input ligand: none
  apparent KD of MS2 coat protein: 534 nM

## AAAAGACAUGAGGAUCACCCAUGUAUGAAAAGUACAGGAUAUCACGCGCUAAAAUGCGAGUGAGAAGGGUGAAAAU [Oronen] (puzzle: Same State 1)
[2]
  apparent KD of MS2 coat protein: 4350 nM
[3]
  apparent KD of MS2 coat protein: 51.3 nM
[4]
  apparent KD of MS2 coat protein: 180 nM

## CAAGCUUGGGUCGUCCCGCUCGUCUACAAACAUGAGGAUCACCCAUGUAUGCUCUUCGCAUCAAUUCUAUCUCUUGG [Quxeteor] (puzzle: Sensor for hsa-mir-208a)
[2]
  apparent KD of MS2 coat protein: 51.5 nM
[3]
  apparent KD of MS2 coat protein: 51.3 nM
[4]
  apparent KD of MS2 coat protein: 54.1 nM

## GCUCGAUGAGCGGUUUACAUGAGGAUCACCCAUGUACAUGGGCAGGAUAUUUACGUGCUUUGUGUAGAGAAGGGCCCAUCGAGC [SameState NG3 #74] (Eterna round: R96, puzzle: Same State NG 3)
Input ligand: FMN 200 uM
  apparent KD of MS2 coat protein: 92.4 nM
[1]
  apparent KD of MS2 coat protein: 280 nM
Input ligand: none
  apparent KD of MS2 coat protein: 244 nM

## CCAUAACGGUGAGGAUAUCGUUGCGAUAAGUGACGAGAAGGCAUUCAUGUGAAAUAAACAUACAUGAGGAUCACCCAUGUUGUA [Omei SS(NG)1 Bv1] (Eterna round: R96, puzzle: Same State NG 1)
Input ligand: FMN 200 uM
  apparent KD of MS2 coat protein: 23.7 nM
[1]
  apparent KD of MS2 coat protein: 57.2 nM
Input ligand: none
  apparent KD of MS2 coat protein: 57.7 nM

## AUUGCUAGCACAGGAUAUCAUGCGAAAAUUGCGUGAGAAGGGUGUACUCUGUCAUUGCCGGAGGACAUGAGGAUCACCCAUGUC [SameState NG1 #82] (Eterna round: R96, puzzle: Same State NG 1)
Input ligand: FMN 200 uM
  apparent KD of MS2 coat protein: 218 nM
[1]
  apparent KD of MS2 coat protein: 33.6 nM
Input ligand: none
  apparent KD of MS2 coat protein: 37.5 nM

## UAAAAGAAGUUAGGAUAUGGUGAAGUACUGUGGCCAGAAGGGACGACUAACCGAGAAAGACAUGAGGAUCACCCAUGUCCACAG [Eternabot solution 20] (Eterna round: R96, puzzle: Same State NG 1)
Input ligand: FMN 200 uM
  apparent KD of MS2 coat protein: 86.5 nM
[1]
  apparent KD of MS2 coat protein: 57 nM
Input ligand: none
  apparent KD of MS2 coat protein: 74.5 nM

## CAAGCUUGGGUCGUCCCGCUCGUCUACAAACAUGAGGAUCACCCAUGUAAAAUCUAAAAUUCAAAUCUAUCUCUAAA [Getienre] (puzzle: Sensor for hsa-mir-208a)
[2]
  apparent KD of MS2 coat protein: 515 nM
[3]
  apparent KD of MS2 coat protein: 20.9 nM
[4]
  apparent KD of MS2 coat protein: 563 nM

## CUCCGGAAGCGAGGAUAUGCAGAGGAUCACCCUGCAGAAGGCGCAAAAGCGAGGAUAUGCAGAGGAUCACCCUGCAGAAGGCGC [pwkr ssNG DX.33] (Eterna round: R96, puzzle: Same State NG 1)
Input ligand: FMN 200 uM
  apparent KD of MS2 coat protein: 10.2 nM
[1]
  apparent KD of MS2 coat protein: 33.3 nM
Input ligand: none
  apparent KD of MS2 coat protein: 39.9 nM

## AAAAAACAUGAGGAUCACCCAUGUAAAAAAAUGGGAGGAUAUACAAAAACAAAAAAAAAAGUAGAAGGCCUGAAAA [same state 9] (Eterna round: R96, puzzle: Same State 1)
Input ligand: FMN 200 uM
  apparent KD of MS2 coat protein: 59.2 nM
[1]
  apparent KD of MS2 coat protein: 478 nM
Input ligand: none
  apparent KD of MS2 coat protein: 520 nM

## GGACGUCAAUCUCCUACUUAAACAUGAGGAUCACCCAUGUCACAGGAUAUGAGUCCGAUUAGGACUCAGAAGGGUGAGACGUCC [Fiskers NG3ss - 50] (Eterna round: R96, puzzle: Same State NG 3)
Input ligand: FMN 200 uM
  apparent KD of MS2 coat protein: 18.8 nM
[1]
  apparent KD of MS2 coat protein: 15.2 nM
Input ligand: none
  apparent KD of MS2 coat protein: 16 nM

## UGGAUCUAGGCUUGCCUGGGUCCAUGCUGACAUGAGGAUCACCCAUGUGCAUCCUACAAGCUUUUUGCUUGUCAGUU (Eterna round: R96, puzzle: Sensor for hsa-mir-208a)
Input ligand: FMN 200 uM
  apparent KD of MS2 coat protein: 575 nM
[1]
  apparent KD of MS2 coat protein: 330 nM
Input ligand: none
  apparent KD of MS2 coat protein: 289 nM

## GCGUUUAACGUAGGAUAUCGAGCUACAUGAGGAUCACCCAUGUCUUUGUAAAGUUUUUUUAAUUCCGAGAAGGACGUAUUGCAU [JR_SSNG2_Sub073] (Eterna round: R96, puzzle: Same State NG 2)
Input ligand: FMN 200 uM
  apparent KD of MS2 coat protein: 27.1 nM
[1]
  apparent KD of MS2 coat protein: 27.2 nM
Input ligand: none
  apparent KD of MS2 coat protein: 35.9 nM

## UAGAGAGGAAGCGAGGAUAUCGUGUUAGGUACAUGAGGAUCACCCAUGUUUUAGGUAGAGGUAGGCGAGAAGGCGCAGGAGAAGA [JR_SS2_Sub090] (puzzle: Same State 2)
[2]
  apparent KD of MS2 coat protein: 25.8 nM
[3]
  apparent KD of MS2 coat protein: 32.9 nM
[4]
  apparent KD of MS2 coat protein: 34 nM

## AGCCGAAGCGCAGGAUAUACAUGCACACAUGAGGAUCACCCAUGUGGCAACACGUGGUAGUGAUUGUAGAAGGGUGCUCGGCGC [Omei SS(NG)2 Cv16] (Eterna round: R96, puzzle: Same State NG 2)
Input ligand: FMN 200 uM
  apparent KD of MS2 coat protein: 60.1 nM
[1]
  apparent KD of MS2 coat protein: 34.4 nM
Input ligand: none
  apparent KD of MS2 coat protein: 51 nM

## GUUACAUGAGGAUCACCCAUGUAUGUGUGGGAGUAAGUGUCUUAGGAUAUCUGUUAUUUGAUUUAAGAGAAGGAAGAUUGUUGU [JMF's solution 40] (Eterna round: R96, puzzle: Same State NG 3)
Input ligand: FMN 200 uM
  apparent KD of MS2 coat protein: 123 nM
[1]
  apparent KD of MS2 coat protein: 78.4 nM
Input ligand: none
  apparent KD of MS2 coat protein: 92.8 nM

## ACUAGAUCGAAAGAUCUAGAAAACGAGUAACAUGAGGAUCACCCAUGUUCAUGUUGCUCGUCUUAAGCCGAAAGGCG [JL ALT 15] (Eterna round: R96, puzzle: Sensor for hsa-mir-208a)
Input ligand: FMN 200 uM
  apparent KD of MS2 coat protein: 71.5 nM
[1]
  apparent KD of MS2 coat protein: 38 nM
Input ligand: none
  apparent KD of MS2 coat protein: 22.8 nM

## GCGAGCGUACUUGCAACAUGAGGAUCACCCAUGUUAACUGGACAGGAUAUGGUACCGUUUCGGUACCAGAAGGGUUCCUCCAUG [JL SSNG3 3.61] (Eterna round: R96, puzzle: Same State NG 3)
Input ligand: FMN 200 uM
  apparent KD of MS2 coat protein: 160 nM
[1]
  apparent KD of MS2 coat protein: 134 nM
Input ligand: none
  apparent KD of MS2 coat protein: 135 nM

## AAAAAAAAGUCAGGAUAUGAAUGGAAAGUACAUGAGGAUCACCCAUGUUAUGGAAAAAAAAAACGUUAGAAGGGAUAAAAAAAA [AK SSNG2-V2-1] (Eterna round: R96, puzzle: Same State NG 2)
Input ligand: FMN 200 uM
  apparent KD of MS2 coat protein: 61.3 nM
[1]
  apparent KD of MS2 coat protein: 90.2 nM
Input ligand: none
  apparent KD of MS2 coat protein: 62.3 nM

## AACAAUCUAUCUGAGGAUAUCAUGAAAUUAACAUGAGGAUCACCCAUGUGCAGGAAAACUGCAUAUGAGAAGGCAGAUAGAUUGA [salish99_ss2_r3_033] (puzzle: Same State 2)
[2]
  apparent KD of MS2 coat protein: 120 nM
[3]
  apparent KD of MS2 coat protein: 1110 nM
[4]
  apparent KD of MS2 coat protein: 2020 nM

## AGUCCAGCAAGAGCUGGACAAAAGCAUGUACAUGAGGAUCACCCAUGUCAUGUACAAGCUUUUUGCUCGUCUUAAAA [Mat - hsa-mir-208a - Mod of JL - D3] (puzzle: Sensor for hsa-mir-208a)
[2]
  apparent KD of MS2 coat protein: 456 nM
[3]
  apparent KD of MS2 coat protein: 16 nM
[4]
  apparent KD of MS2 coat protein: 729 nM

## GUAGCAUACCGAGGAUAUUCAUAUAAUACAUGAGGAUCACCCAUGUUAAAUAGGCGAAAGCCUUGGGAGAAGGCGGAAUGCUAC [Xeonanis - 20 Mod66] (Eterna round: R96, puzzle: Same State NG 2)
Input ligand: FMN 200 uM
  apparent KD of MS2 coat protein: 10.5 nM
[1]
  apparent KD of MS2 coat protein: 13 nM
Input ligand: none
  apparent KD of MS2 coat protein: 17.1 nM

## UGUUAUUAGACAGGAUAUUGAAUGUUAAGUAUUAACAUGAGGAUCACCCAUGUAUUUGAUUGGUACAAGAAGGGUCAUGUUCCU [JR_SSNG2_Sub016] (Eterna round: R96, puzzle: Same State NG 2)
[1]
  apparent KD of MS2 coat protein: 399 nM
